What was measured:
Assay in all cases: FRET or BRET
[1] = molecular target: CXCR4(Δ1–15), HA-free (tagless) (human) (UniProt P61073)
[2] = molecular target: CXCR4(D187A) (human) (UniProt P61073)
[3] = molecular target: CXCR4(Δ1–25), HA-free (tagless) (human) (UniProt P61073)
[4] = molecular target: CXCR4(R30Q) (human) (UniProt P61073)

efficacy (Emax) remaining, % of WT CXCR4 [1]: 33%
efficacy (Emax) remaining, % of WT CXCR4 [2]: 30%
efficacy (Emax) remaining, % of WT CXCR4 [3]: 23%
decrease in efficacy (Emax) vs WT CXCR4 [4]: 30%
Substance: renilla GFP fused to mini-Gαsi
